In paper PMC4208085 (FEBS Open Bio, 2014):

Target: the molecule itself
Experiment: crystal structure

B1: C-terminal soluble domain of STOPP (stomatin operon partner protein) PH1510 from Pyrococcus horikoshii (domain or fragment, UniProt O59179 371-441, looked up)
chain: KARTGKEEMIGLIGTVVEELNPEGMIKVRGELWKARSKFNGKIEKGEKVRVVDMDGLTLIVVRERKEGGEK
binding result: binds
